Data as given in article doi:10.1101/2022.02.17.480751 (bioRxiv, 2022).

Key:
[1] = molecular target: SARS-CoV-2 S1 (residues 1-682, Wuhan-Hu-1), Strep-tagged (SARS-CoV-2, Wuhan-Hu-1, UniProt P0DTC2); assay: ELISA
[2] = molecular target: SARS-CoV-2 S receptor-binding domain (RBD, residues 329-538, Wuhan-Hu-1), Strep-tagged (SARS-CoV-2, Wuhan-Hu-1, UniProt P0DTC2); assay: ELISA

| Binder | binding result [1] | binding result [2] |
| --- | --- | --- |
| REGN10987 (recombinant human IgG1/kappa) (antibody, V domains shown) VH: QVQLVESGGGVVQPGRSLRLSCAASGFTFSNYAMYWVRQAPGKGLEWVAVISYDGSNKYYADSVKGRFTISRDNSKNTLYLQMNSLRTEDTAVYYCASGSDYGDYLLVYWGQGTLVTVSS VL: QSALTQPASVSGSPGQSITISCTGTSSDVGGYNYVSWYQQHPGKAPKLMIYDVSKRPSGVSNRFSGSKSGNTASLTISGLQSEDEADYYCNSLTSISTWVFGGGTKLTVL | binds | – |
| 87G7 human monoclonal antibody (recombinant human IgG1/kappa) (antibody, V domains shown) VH: EVQLLESGGGLVQPGGSLRLSCVASGFTFSSYVMSWVRQAPGKGLEWVAAISGSGGNTYYADSVKGRFTISRDNSKNTLYLQMNSLRAEDTAVYYCAKEGTYYYGSGSFWGQGTLVTVSS VL: EIVLTQSPATLSLSPGERATLSCRASQSFHNYLAWYQQKPGRAPRLLIFDASNRATGIPARFSGSGSGTDFTLTISSLEPEDFAVYYCQQRFNWPLTFGGGTKVEIK | binds | binds |
| REGN10933 (recombinant human IgG1/kappa) (antibody, V domains shown) VH: QVQLVESGGGLVKPGGSLRLSCAASGFTFSDYYMSWIRQAPGKGLEWVSYITYSGSTIYYADSVKGRFTISRDNAKSSLYLQMNSLRAEDTAVYYCARDRGTTMVPFDYWGQGTLVTVSS VL: DIQMTQSPSSLSASVGDRVTITCQASQDITNYLNWYQQKPGKAPKLLIYAASNLETGVPSRFSGSGSGTDFTFTISGLQPEDIATYYCQQYDNLPLTFGGGTKVEIK | binds | – |
